The test system of data set [1] is HeLa Kyoto. The experiment in a line: melting temperature (median over replicates), in situ; higher = more thermally stable.
Data set [2] concerns HeLa Kyoto. Kind of data set: solubility change mitosis vs G1/S (difference of NP-40 vs SDS log2 ratios) (log2 ratio difference); higher = more soluble in mitosis.
Data set [3] relates to HeLa Kyoto. Kind of data set: solubility in G1/S (NP-40 vs SDS abundance) (log2 ratio); higher = more soluble. The conditions noted are these: cell cycle stage: G1/S.
The subject of data set [4] is HeLa Kyoto. The experiment in a line: thermal stability score vs G1/S (z-score of summed log2 fold changes over temperatures); higher = more thermally stable than in G1/S.
[5] abbreviates: cell cycle stage: early G1 (4.5 h after nocodazole release).
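Throughout, for melting temperature (median over replicates), in situ: HeLa Kyoto cells synchronized by double thymidine or nocodazole block, proteins quantified by TMT10plex mass spectrometry, three independent biological replicates.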
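Throughout, for solubility change mitosis vs G1/S (difference of NP-40 vs SDS log2 ratios): synchronized HeLa Kyoto cells (double thymidine block for G1/S, nocodazole release for mitosis), protein amounts in NP-40 versus SDS lysates quantified by mass spectrometry, three biological replicates.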
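Throughout, for solubility in G1/S (NP-40 vs SDS abundance): HeLa Kyoto cells arrested at G1/S by double thymidine block, proteins quantified by TMT10plex mass spectrometry in mild NP-40 versus SDS extracts, three biological replicates.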
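Throughout, for thermal stability score vs G1/S (z-score of summed log2 fold changes over temperatures): synchronized HeLa Kyoto cells, proteins quantified by TMT10plex mass spectrometry, three biological replicates, mitosis taken 0.5 h after nocodazole release, G1/S directly after double thymidine block.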

In the case of “MSSDFEGYEQDFAVLTAEITSKIARVPRLPPDEKKQMVANVEKQLEEAKELLEQMDLEVREIPPQSRGMYSNRMRSYKQEMGKLETDFKRSRIAYSDEVRNELLGDDGNSSENQRAHLLDNTERLERSSRRLEAGYQIAVETEQIGQEMLENLSHDREKIQRARERLRETDANLGKSSRILTGMLRRIIQNRILLVILGIIVVITILMAITFSVRRH [VTI1A]”, the values for the melting temperature in data set [1] (cell cycle stage: G1/S) and in data set [1] (cell cycle stage: mitosis) were 55.6 °C and 55.8 °C, respectively. Besides, the “solubility change mitosis (log2)” value in data set [2] was -0.165. Also, the “solubility in G1/S (log2)” value in data set [3] is 0.0215. The thermal stability score in data set [4] (setting [5]) was -4.18; in data set [4] (cell cycle stage: mitosis) it was -3.25.
For “MSSESSKKRKPKVIRSDGAPAEGKRNRSDTEQEGKYYSEEAEVDLRDPGRDYELYKYTCQELQRLMAEIQDLKSRGGKDVAIEIEERRIQSCVHFMTLKKLNRLAHIRLKKGRDQTHEAKQKVDAYHLQLQNLLYEVMHLQKEITKCLEFKSKHEEIDLVSLEEFYKEAPPDISKAEVTMGDPHQQTLARLDWELEQRKRLAEKYRECLSNKEKILKEIEVKKEYLSSLQPRLNSIMQASLPVQEYLFMPFDQAHKQYETARHLPPPLYVLFVQATAYGQACDKTLSVAIEGSVDEAKALFKPPEDSQDDESDSDAEEEQTTKRRRPTLGVQLDDKRKEMLKRHPLSVMLDLKCKDDSVLHLTFYYLMNLNIMTVKAKVTTAMELITPISAGDLLSPDSVLSCLYPGDHGKKTPNPANQYQFDKVGILTLSDYVLELGHPYLWVQKLGGLHFPKEQPQQTVIADHSLSASHMETTMKLLKTRVQSRLALHKQFASLEHGIVPVTSDCQYLFPAKVVSRLVKWVTVAHEDYMELHFTKDIVDAGLAGDTNLYYMALIERGTAKLQAAVVLNPGYSSIPPVFQLCLNWKGEKTNSNDDNIRAMEGEVNVCYKELCGPWPSHQLLTNQLQRLCVLLDVYLETESHDDSVEGPKEFPQEKMCLRLFRGPSRMKPFKYNHPQGFFSHR [THOC5]”, the results for the melting temperature in data set [1] (cell cycle stage: G1/S) and in data set [1] (cell cycle stage: mitosis) were 51.4 °C and 50.4 °C, respectively. Besides, in data set [2], the “solubility change mitosis (log2)” value is 0.281. For the same sequence, the “solubility in G1/S (log2)” value in data set [3] was -0.323. Also, the thermal stability score turned out to be 0.533 in data set [4] (setting [5]) and 0.546 in data set [4] (cell cycle stage: mitosis).
As for “MSSFGAGKTKEVIFSVEDGSVKMFLRGRPVPMMIPDELAPTYSLDTRSELPSCRLKLEWVYGYRGRDCRANLYLLPTGEIVYFVASVAVLYSVEEQRQRHYLGHNDDIKCLAIHPDMVTIATGQVAGTTKEGKPLPPHVRIWDSVSLSTLHVLGLGVFDRAVCCVGFSKSNGGNLLCAVDESNDHMLSVWDWAKETKVVDVKCSNEAVLVATFHPTDPTVLITCGKSHIYFWTLEGGSLSKRQGLFEKHEKPKYVLCVTFLEGGDVVTGDSGGNLYVWGKGGNRITQAVLGAHDGGVFGLCALRDGTLVSGGGRDRRVVLWGSDYSKLQEVEVPEDFGPVRTVAEGHGDTLYVGTTRNSILQGSVHTGFSLLVQGHVEELWGLATHPSRAQFVTCGQDKLVHLWSSDSHQPLWSRIIEDPARSAGFHPSGSVLAVGTVTGRWLLLDTETHDLVAIHTDGNEQISVVSFSPDGAYLAVGSHDNLVYVYTVDQGGRKVSRLGKCSGHSSFITHLDWAQDSSCFVTNSGDYEILYWDPATCKQITSADAVRNMEWATATCVLGFGVFGIWSEGADGTDINAVARSHDGKLLASADDFGKVHLFSYPCCQPRALSHKYGGHSSHVTNVAFLWDDSMALTTGGKDTSVLQWRVV [EML2]”, the melting temperature in data set [1] (cell cycle stage: G1/S) is 53.1 °C; in data set [1] (cell cycle stage: mitosis) it was 53.4 °C. Moreover, the “solubility change mitosis (log2)” value in data set [2] was -0.207. The “solubility in G1/S (log2)” value in data set [3] is -0.16. Moreover, the thermal stability score in data set [4] (setting [5]) was -0.964; in data set [4] (cell cycle stage: mitosis), -1.37.
As for “MSSGAASGTGRGRPRGGGPGPGDPPPSETHKLVVVGGGGVGKSALTIQFIQSYFVSDYDPTIEDSYTKICSVDGIPARLDILDTAGQEEFGAMREQYMRAGHGFLLVFAINDRQSFNEVGKLFTQILRVKDRDDFPVVLVGNKADLESQRQVPRSEASAFGASHHVAYFEASAKLRLNVDEAFEQLVRAVRKYQEQELPPSPPSAPRKKGGGCPCVLL [RRAS]”, the melting temperature stood at 56.1 °C in data set [1] (cell cycle stage: G1/S) and 56 °C in data set [1] (cell cycle stage: mitosis). Moreover, the “solubility change mitosis (log2)” value in data set [2] is -0.0644. Besides, the “solubility in G1/S (log2)” value in data set [3] worked out at 0.28. The thermal stability score in data set [4] (setting [5]) was 0.904; in data set [4] (cell cycle stage: mitosis), -0.296.
Regarding “MSSILPFTPPVVKRLLGWKKSAGGSGGAGGGEQNGQEEKWCEKAVKSLVKKLKKTGRLDELEKAITTQNCNTKCVTIPSTCSEIWGLSTPNTIDQWDTTGLYSFSEQTRSLDGRLQVSHRKGLPHVIYCRLWRWPDLHSHHELKAIENCEYAFNLKKDEVCVNPYHYQRVETPVLPPVLVPRHTEILTELPPLDDYTHSIPENTNFPAGIEPQSNYIPETPPPGYISEDGETSDQQLNQSMDTGSPAELSPTTLSPVNHSLDLQPVTYSEPAFWCSIAYYELNQRVGETFHASQPSLTVDGFTDPSNSERFCLGLLSNVNRNATVEMTRRHIGRGVRLYYIGGEVFAECLSDSAIFVQSPNCNQRYGWHPATVCKIPPGCNLKIFNNQEFAALLAQSVNQGFEAVYQLTRMCTIRMSFVKGWGAEYRRQTVTSTPCWIELHLNGPLQWLDKVLTQMGSPSVRCSSMS [SMAD2]”, the melting temperature in data set [1] (cell cycle stage: G1/S) is 50.5 °C; in data set [1] (cell cycle stage: mitosis), 49.9 °C. For the same sequence, the “solubility change mitosis (log2)” value in data set [2] was -0.177. The “solubility in G1/S (log2)” value in data set [3] is -0.0287. The thermal stability score in data set [4] (setting [5]) was determined as 0.527; in data set [4] (cell cycle stage: mitosis), 1.37.

These data come from the supplement of paper PMC5998384.
